Positions count from the first letter of the chain named. Numbers in names are those of the source.
B1: type 2 EBNA2 polypeptide T2 EBNA2_(348-412) (domain or fragment)
chain: SMPQLSPVVSLHQGQGPENSPTPGPSTAGPVCRVTPSATPDISPIHEPESSDSEEPPFLFPSDWY
notes: also called type 2 EBNA2_(348-412); source: E. coli Rosetta 2 (DE3) pLysS, purified (cobalt resin, 3C protease cleavage, Superdex 75); not shown: His6, N-terminal, cleaved
B2: type 2 EBNA2 motif 3 peptide (T2 EBNA2_(412-422)) (peptide)
peptide: YPPTLEPAELD
notes: EBNA2 of type 2 Epstein-Barr virus (AG876), residues 412-422, holding motif 3 (PTLEP 414-418); source: synthetic peptide (Peptide Synthetics)
B3: type 2 EBNA2 polypeptide T2 EBNA2_(348-422) (domain or fragment)
chain: SMPQLSPVVSLHQGQGPENSPTPGPSTAGPVCRVTPSATPDISPIHEPESSDSEEPPFLFPSDWYPPTLEPAELD
notes: EBNA2 of type 2 Epstein-Barr virus (AG876), amino acids 348-422 (motifs 1, 2 and 3), in pET47b+; also called T2 E2_(348-422); source: E. coli Rosetta 2 (DE3) pLysS, purified (HisPur cobalt resin, 3C protease cleavage, Superdex 75); not shown: His6, N-terminal, cleaved
B4: type 2 EBNA2 polypeptide T2 EBNA2_(348-422) (domain or fragment)
chain: B3 chain
notes: Monomer alone by SEC-MALS; also called T2 E2_(348-422); type 2 EBNA2_(348-422); source: E. coli Rosetta 2 (DE3) pLysS, purified (cobalt resin, 3C protease cleavage, Superdex 75); not shown: His6, N-terminal, cleaved
B5: T2 EBNA2_(348-422) motif 3 mt (PTLEP to ATAEA) (domain or fragment)
chain: B3 chain with P67A, L69A, P71A
notes: EBNA2 of type 2 Epstein-Barr virus (AG876), residues 348-422, with motif 3 mutated from PTLEP to ATAEA; also called T2 E2 m3 mt; source: E. coli Rosetta 2 (DE3) pLysS, purified (cobalt resin, 3C protease cleavage, Superdex 75); not shown: His6, N-terminal, cleaved
B6: EBNA2_(348-422) SD + m3 T1 (domain or fragment)
chain: B3 chain with S62D, T68S, L69I, E70D
notes: EBNA2 of type 2 Epstein-Barr virus (AG876), residues 348-422, with S409D and motif 3 PTLEP replaced by PSIDP; also called T2 EBNA2_(348-422) SD + m3 T1; type 2 EBNA2 double mutant (S409D, PTLEP to PSIDP); source: E. coli Rosetta 2 (DE3) pLysS, purified (cobalt resin, 3C protease cleavage, Superdex 75); not shown: His6, N-terminal, cleaved
B7: EBNA2_(348-422) SD + m3 mt (domain or fragment)
chain: B3 chain with S62D, P67A, L69A, P71A
notes: EBNA2 of type 2 Epstein-Barr virus (AG876), residues 348-422, with S409D and motif 3 PTLEP mutated to ATAEA; also called type 2 EBNA2 double mutant (S409D, PTLEP to ATAEA); source: E. coli Rosetta 2 (DE3) pLysS, purified (cobalt resin, 3C protease cleavage, Superdex 75); not shown: His6, N-terminal, cleaved
B8: T2 EBNA2_(348-422) m3 T1 (PTLEP to the type 1 sequence PSIDP) (domain or fragment)
chain: B3 chain with T68S, L69I, E70D
notes: source: E. coli Rosetta 2 (DE3) pLysS, purified (HisPur cobalt resin, 3C protease cleavage, Superdex 75); not shown: His6, N-terminal, cleaved
B9: T2 EBNA2_(348-422) motif 3 mt (PTLEP to ATAEA) (domain or fragment)
chain: B3 chain with P67A, L69A, P71A
notes: EBNA2 of type 2 Epstein-Barr virus (AG876), amino acids 348-422, motif 3 PTLEP_(414-418) mutated to ATAEA; also called T2 EBNA2348-422 m3 mt; source: E. coli Rosetta 2 (DE3) pLysS, purified (HisPur cobalt resin, 3C protease cleavage, Superdex 75); not shown: His6, N-terminal, cleaved
B10: T2 EBNA2_(348-422) SD mutant (S409D) (domain or fragment)
chain: B3 chain with S62D
notes: EBNA2 of type 2 Epstein-Barr virus (AG876), residues 348-422, serine to aspartate at position 409; text and methods say position 409; source: E. coli Rosetta 2 (DE3) pLysS, purified (cobalt resin, 3C protease cleavage, Superdex 75); not shown: His6, N-terminal, cleaved
B11: type 2 EBNA2 motif 2 peptide (402-412) (peptide)
peptide: EPPFLFPSDWY
notes: source: synthetic peptide (Peptide Synthetics)
B12: BS69 coiled-coil MYND domain (BS69_(CC-MYND), amino acids 480-602) (domain or fragment, human, UniProt Q15326 480-602, looked up)
chain: DRMKSDHKRETERVVREALEKLRSEMEEEKRQAVNKAVANMQGEMDRKCKQVKEKCKEEFVEEIKKLATQHKQLISQTKKKQWCYNCEEEAMYHCCWNTSYCSIKCQQEHWHAEHKRTCRRKR
notes: BS69 (ZMYND11), human, amino acids 480-602 comprising the coiled-coil and MYND domains, amplified from pCI-BS69 (full length, isoform 1, 602 amino acids); Dimer by SEC-MALS; Expressed from pET49b+ as a GST-6xHis fusion; the tag was cleaved with 3C protease; also called BS69 CC-MYND domain; ZMYND11; source: E. coli Rosetta 2 (DE3) pLysS, purified (cobalt resin, 3C protease cleavage, GSTrap, …)

How the values were obtained:
[1] = molecular target: B12; test: ITC; EBNA2 polypeptide titrated into 0.1 mM BS69_(CC-MYND) in the cell, 19 x 2.0 μl injections, 25°C, 20 mM Tris-HCl, 100 mM NaCl, 1 mM TCEP, pH 7.5; one-site (one event) model; n calculated for monomeric proteins; conditions: both partners purified
[2] = molecular target: B12; test: ITC; 1 mM EBNA2 peptide titrated into 0.1 mM BS69_(CC-MYND) in the cell, 25°C, 20 mM Tris-HCl, 100 mM NaCl, 1 mM TCEP, pH 7.5; one-site model with n fixed to 1; conditions: both partners purified
[3] = molecular target: T1, BS69 coiled-coil MYND domain (BS69_(CC-MYND), amino acids 480-602) (human, UniProt Q15326-1 480-602); test: ITC; EBNA2 polypeptide (0.3 or 0.6 mM) titrated into 0.1 mM BS69_(CC-MYND) in the cell, 19 x 2.0 µl injections, 25°C, 20 mM Tris-HCl, 100 mM NaCl, 1 mM TCEP, pH 7.5; one-site (one event) model; n on monomer concentrations; mean of 3 experiments; conditions: both partners purified
T1 construct: cloned into pET49b+; also called ZMYND11 CC-MYND; source: E. coli Rosetta 2 (DE3) pLysS, purified (HisPur cobalt resin, 3C protease cleavage, Superdex 75); not shown: GST, N-terminal, cleaved; His6, N-terminal, cleaved
T1 sequence (looked up): B12 chain

[4] = molecular target: B12; test: ITC; EBNA2 polypeptide (0.3 mM) titrated into 0.1 mM BS69_(CC-MYND) in the cell, 29 x 1.3 μl injections, 25°C, 20 mM Tris-HCl, 100 mM NaCl, 1 mM TCEP, pH 7.5; two-site (two event) model; conditions: both partners purified
[5] = molecular target: the molecule itself; test: SEC-MALS; individual polypeptides, 5 mg/ml, Shodex KW403-4F column, 25°C, 20 mM Tris-HCl, 100 mM NaCl, 1 mM TCEP, pH 7.5

For B1, the Kd [1] was 1210 nM, the dH [1] was -22.5 kcal/mol and the “stoichiometry N” value [1] was 0.33.

Binder B2 has a Kd [2] of 219000 nM.

EAPILFPDDWY [type 1 EBNA2 motif 2 peptide (435-445)] was tested, and the Kd [2] was 47700 nM.

For B3, the Kd [3] was 1010 nM.

B4 was tested, and the “dH of the second binding event” value [4] was -1.59 kcal/mol, the dH [1] was -53.2 kcal/mol and the “stoichiometry N” value [1] was 0.15.

In the case of B5, the dH [1] is reported as -25.7 kcal/mol and the “stoichiometry N” value [1] is reported as 0.3.

B6: binds [4].

B7: binds [4].

With B8 the Kd [3] was 1900 nM and the “stoichiometry N” value [3] was 0.25.

B9 was tested, and the Kd [3] was 590 nM and the “stoichiometry N” value [3] was 0.31.

B10 was tested, and the “dH of the second binding event” value [4] was -7.65 kcal/mol.

With B11 the Kd [2] was 176000 nM.

In the case of B12, the “stoichiometry N” value [5] is reported as 2.
